This note sets out measurements from US20190358295A1.

For experiment [1], the target named is Mst1r (macrophage stimulating 1 receptor/RON kinase) on mouse erythroid progenitor cells (mouse) (UniProt Q62190). Briefly: cell-based or functional assay.
Experiment [2] deals with IL-17Ra on mouse bone marrow erythroid progenitor cells (mouse) (UniProt Q60943). The experiment can be described thus: cell-based or functional assay.

A value given as a limit tells only on which side of the number the result lay.

Chain of UniProt Q60943 (Q60943 32-864): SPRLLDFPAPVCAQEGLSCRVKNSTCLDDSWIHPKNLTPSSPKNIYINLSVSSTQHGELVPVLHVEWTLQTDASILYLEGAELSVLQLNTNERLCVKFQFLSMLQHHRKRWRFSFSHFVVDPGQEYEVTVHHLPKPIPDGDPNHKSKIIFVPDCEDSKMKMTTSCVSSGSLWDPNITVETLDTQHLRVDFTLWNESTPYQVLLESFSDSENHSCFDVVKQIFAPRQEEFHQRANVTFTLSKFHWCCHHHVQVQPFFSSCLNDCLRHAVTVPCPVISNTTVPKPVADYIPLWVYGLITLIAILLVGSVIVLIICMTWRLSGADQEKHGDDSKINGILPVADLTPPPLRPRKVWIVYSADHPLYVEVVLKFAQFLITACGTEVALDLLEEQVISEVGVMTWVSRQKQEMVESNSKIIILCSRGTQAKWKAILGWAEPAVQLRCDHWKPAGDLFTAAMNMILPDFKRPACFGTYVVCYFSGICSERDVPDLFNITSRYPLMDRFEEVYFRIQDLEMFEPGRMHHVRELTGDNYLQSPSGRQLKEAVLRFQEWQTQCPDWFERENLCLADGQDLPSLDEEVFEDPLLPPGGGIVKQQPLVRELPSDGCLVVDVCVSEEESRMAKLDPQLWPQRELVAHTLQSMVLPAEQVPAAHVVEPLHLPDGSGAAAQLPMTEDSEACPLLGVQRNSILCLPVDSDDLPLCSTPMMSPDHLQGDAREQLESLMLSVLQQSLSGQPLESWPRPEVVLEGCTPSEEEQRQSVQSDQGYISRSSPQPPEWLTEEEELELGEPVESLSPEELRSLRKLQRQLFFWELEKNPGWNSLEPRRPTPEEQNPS
Chain of UniProt Q62190 (Q62190 24-1378): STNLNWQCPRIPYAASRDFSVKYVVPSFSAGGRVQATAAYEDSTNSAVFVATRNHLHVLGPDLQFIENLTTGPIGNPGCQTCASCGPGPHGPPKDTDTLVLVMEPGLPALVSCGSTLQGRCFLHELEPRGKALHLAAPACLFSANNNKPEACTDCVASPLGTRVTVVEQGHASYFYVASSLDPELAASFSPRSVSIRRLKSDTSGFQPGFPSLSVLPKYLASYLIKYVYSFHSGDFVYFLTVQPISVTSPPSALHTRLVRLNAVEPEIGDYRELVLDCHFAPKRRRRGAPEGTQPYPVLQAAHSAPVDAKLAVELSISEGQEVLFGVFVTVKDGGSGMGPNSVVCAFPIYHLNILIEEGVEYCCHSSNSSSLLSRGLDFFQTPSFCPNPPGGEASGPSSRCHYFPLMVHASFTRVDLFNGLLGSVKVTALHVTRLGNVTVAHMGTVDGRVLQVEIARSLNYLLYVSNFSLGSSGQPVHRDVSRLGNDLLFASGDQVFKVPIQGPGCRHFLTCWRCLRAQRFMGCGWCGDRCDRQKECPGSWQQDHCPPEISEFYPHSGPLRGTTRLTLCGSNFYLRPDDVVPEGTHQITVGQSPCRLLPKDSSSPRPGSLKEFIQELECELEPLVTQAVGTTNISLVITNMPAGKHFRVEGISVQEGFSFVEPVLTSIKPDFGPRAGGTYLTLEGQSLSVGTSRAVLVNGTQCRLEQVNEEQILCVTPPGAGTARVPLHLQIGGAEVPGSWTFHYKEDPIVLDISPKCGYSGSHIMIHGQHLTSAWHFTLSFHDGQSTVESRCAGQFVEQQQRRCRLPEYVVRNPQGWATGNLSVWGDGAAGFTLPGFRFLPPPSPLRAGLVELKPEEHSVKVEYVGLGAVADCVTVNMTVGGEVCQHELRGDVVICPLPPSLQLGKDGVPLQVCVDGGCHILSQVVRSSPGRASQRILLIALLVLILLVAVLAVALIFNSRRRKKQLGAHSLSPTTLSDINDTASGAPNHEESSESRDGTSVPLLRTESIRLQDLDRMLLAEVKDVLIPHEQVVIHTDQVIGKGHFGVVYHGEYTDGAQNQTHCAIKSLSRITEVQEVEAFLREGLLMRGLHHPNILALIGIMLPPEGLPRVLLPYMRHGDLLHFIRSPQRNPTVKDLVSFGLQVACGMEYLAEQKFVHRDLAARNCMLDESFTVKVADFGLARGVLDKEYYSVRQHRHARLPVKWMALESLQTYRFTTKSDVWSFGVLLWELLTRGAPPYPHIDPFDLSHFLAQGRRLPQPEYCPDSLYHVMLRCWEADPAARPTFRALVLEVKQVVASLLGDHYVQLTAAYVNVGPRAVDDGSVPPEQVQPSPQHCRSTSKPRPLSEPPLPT

In experiment [1], “MSP/MST1 (R&D systems; CAT #6244-MS-025) (from UniProt P26928 19-716) (ligand)” gave an FL CFU-e colony formation at mildly elevated Epo (50 mU/ml) of over 2 fold.

B1: Recombinant Murine IL17 (IL-17A) (PeproTech) (ligand, UniProt Q62386 26-158, looked up)
chain: AAIIPQSSACPNTEAKDFLQNVKVNLKVFNSLGAKVSSRRPSDYLNRSTSPWTLHRNEDPDRYPSVIWEAQCRHQRCVNAEGKLDHHMNSVLIQQEILVLKREPESCPFTFRVEKMLVGVGCTCVASIVRQAA
Turning to B1, in experiment [2], the adult BM CFU-e colony formation at lower Epo (50 mU/ml) came to 4 fold and the adult BM CFU-e colony formation at maximal levels of Epo is 50%.
